Measurements taken from patent US20260000597A1 (priority 2018, published 2026).
Like-named read-outs stand apart in the source and are kept apart here. Non-standard residues stand in square brackets, D forms with d. Residues, ends and D or L forms follow the SMILES beside them. No end group written: not given here. *: point of attachment. Palmitoyl = CCCCCCCCCCCCCCCC(=O)*; Dab = NCC[C@H](N)C(=O)O; NHBn = c1ccc(CN*)cc1; βAla = NCCC(=O)O

How the values were obtained:
[1] = target: T1, AchR (Homo sapiens, UniProt P02708); assay: ELISA of screened peptide phages on AchR versus streptavidin (OD450); format: binding; conditions: absorbance at 450 nm
How it was run: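 Reported as the ratio of AchR to streptavidin OD450, with TMB read-out after HRP anti-M13 detection. Wells coated with 5 μg/ml target overnight at 4 °C and BSA-blocked, then incubated 1 h at 30 °C with helper-rescued phage from individual plaques.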
Target sequence in this assay (P02708 21-457): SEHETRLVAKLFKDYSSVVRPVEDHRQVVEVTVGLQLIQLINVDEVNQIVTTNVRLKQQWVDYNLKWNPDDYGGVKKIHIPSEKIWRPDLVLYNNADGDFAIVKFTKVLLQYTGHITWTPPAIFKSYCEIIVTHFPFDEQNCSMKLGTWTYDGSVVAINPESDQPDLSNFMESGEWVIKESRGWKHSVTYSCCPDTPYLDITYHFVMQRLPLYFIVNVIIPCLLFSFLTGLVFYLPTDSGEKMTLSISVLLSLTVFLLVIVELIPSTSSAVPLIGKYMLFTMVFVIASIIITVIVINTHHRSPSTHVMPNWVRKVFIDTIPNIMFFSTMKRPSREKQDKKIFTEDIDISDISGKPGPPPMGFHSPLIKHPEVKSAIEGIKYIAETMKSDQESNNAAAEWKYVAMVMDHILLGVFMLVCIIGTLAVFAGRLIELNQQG

[2] = target: Acetylcholine receptor proteins (AchR) (Homo sapiens, UniProt P02708); format: binding; conditions: for AchR binding affinity (resonance units: Ru) among representative peptides / AchR binding affinity compared with Spep-2 / AchR binding affinity: SPR; for AchR binding affinity (resonance units: Ru) among representative peptides: peptides 3 μM; for AchR binding affinity: 10 μM peptides, compared with Synake
Acetylcholine receptor proteins (AchR), sequence (P02708 21-457): as above
Procedure: Spep-1 to Spep-11 selected in Example 1 were synthesized, and the AchR binding affinity was compared thereamong using a surface plasmon resonance (SPR) analyzer (Biacore3000, Biacore A, Sweden). […]
The treatment concentrations of Spep-2 were 0.12 to 1 μM, and the dissociation constant was compared while Synake was used as a positive control.

[3] = test system: TE671 cells
Procedure: To evaluate the toxicity of Spep-1 and Spep-2, WST Assay was performed on TE671 cells.

[4] = target: T1, AchR; assay: cell-based; format: cell-based; design: endogenous in cells; host or cells: TE671; conditions: for AchR inhibitory effect: acetylcholine treatment
Target sequence in this assay (P02708 21-457): as above
Target sequence in this assay (Q07001 22-517, further chain): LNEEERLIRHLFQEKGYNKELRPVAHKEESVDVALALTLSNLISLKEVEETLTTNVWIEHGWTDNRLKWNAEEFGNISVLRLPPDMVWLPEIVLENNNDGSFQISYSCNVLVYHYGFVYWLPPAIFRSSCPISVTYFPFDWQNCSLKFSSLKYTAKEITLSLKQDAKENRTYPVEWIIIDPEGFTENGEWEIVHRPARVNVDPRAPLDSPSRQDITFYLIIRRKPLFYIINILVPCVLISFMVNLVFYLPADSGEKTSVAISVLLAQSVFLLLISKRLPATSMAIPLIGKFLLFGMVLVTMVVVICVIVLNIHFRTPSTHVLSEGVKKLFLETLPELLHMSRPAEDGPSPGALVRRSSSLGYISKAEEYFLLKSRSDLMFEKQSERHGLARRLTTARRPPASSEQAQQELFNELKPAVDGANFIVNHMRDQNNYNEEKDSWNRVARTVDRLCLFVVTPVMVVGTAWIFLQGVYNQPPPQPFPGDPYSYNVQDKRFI
Target sequence in this assay (P07510 23-517, further chain): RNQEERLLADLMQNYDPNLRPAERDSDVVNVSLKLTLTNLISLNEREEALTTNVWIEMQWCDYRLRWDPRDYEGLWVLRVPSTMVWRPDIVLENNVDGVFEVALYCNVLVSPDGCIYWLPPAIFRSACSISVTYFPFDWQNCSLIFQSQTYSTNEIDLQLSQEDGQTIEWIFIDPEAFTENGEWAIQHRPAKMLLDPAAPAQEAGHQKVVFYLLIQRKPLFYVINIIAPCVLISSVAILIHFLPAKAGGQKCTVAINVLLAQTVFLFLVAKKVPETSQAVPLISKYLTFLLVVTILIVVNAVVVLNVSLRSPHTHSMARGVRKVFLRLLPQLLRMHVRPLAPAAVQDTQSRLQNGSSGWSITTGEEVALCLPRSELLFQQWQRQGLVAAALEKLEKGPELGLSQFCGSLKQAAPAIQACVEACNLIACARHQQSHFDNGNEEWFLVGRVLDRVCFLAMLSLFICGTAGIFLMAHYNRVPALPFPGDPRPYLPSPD
Target sequence in this assay (P11230 24-501, further chain): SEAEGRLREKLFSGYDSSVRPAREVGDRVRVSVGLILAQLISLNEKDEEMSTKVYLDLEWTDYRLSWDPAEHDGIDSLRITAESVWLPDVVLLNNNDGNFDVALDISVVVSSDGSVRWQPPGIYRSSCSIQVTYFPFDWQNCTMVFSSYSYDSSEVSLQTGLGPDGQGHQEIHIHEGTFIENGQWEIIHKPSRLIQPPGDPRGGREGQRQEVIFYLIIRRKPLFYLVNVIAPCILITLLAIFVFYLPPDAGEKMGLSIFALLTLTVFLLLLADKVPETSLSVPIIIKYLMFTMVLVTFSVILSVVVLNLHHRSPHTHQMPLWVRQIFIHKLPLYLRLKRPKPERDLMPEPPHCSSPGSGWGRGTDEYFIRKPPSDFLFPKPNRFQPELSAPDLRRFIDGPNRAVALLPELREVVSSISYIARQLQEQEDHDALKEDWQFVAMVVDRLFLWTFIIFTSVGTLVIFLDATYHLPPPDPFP

[5] = test system: BALB/c mice; format: in vivo
Procedure: Specifically, the DAS values for Palmitoyl-L3-37 in Example 18 were evaluated. […]; and a group treated with a saline solution (sterilized 0.9% NaCl) or 70 μg/kg bungarotoxin as a control group. Then, palmitoyl-L3-37 and the saline solution or bungarotoxin at the concentrations as above were injected each 50 μl into the hind thigh muscles of mice. Thereafter, the mice weight and the sole of the injected portion were observed and recorded every day, and the results are shown in FIGS. 37 to 39.

[6] = ELISA of selected 14-mer (L3) peptide phages on AchR, Spep-2 positive control
[7] = ELISA of selected 11-mer (L2) peptide phages on AchR, Spep-2 positive control
[8] = phage ELISA, 5 μg/ml AchR, 4th and 5th round biopanning phages

## L3-37: 14-mer optimized peptide of the L3 library (Table 12, not shown here) (SNVKRKRGRCKPYR; AchR binding peptide) [Peptide L3-37]
[1]; [6]
  OD: 0.69
[2]
  AchR binding affinity (resonance units: Ru) among representative peptides: highest binding affinity

## NCCC(=O)N1CCC[C@H]1C(=O)N[C@@H](CCN)C(=O)NCc1ccccc1 [Synake, reference compound] (H-[βAla]-Pro-[Dab]-NHBn; N-terminus and C-terminus assumed)
[3]; TE671 cells, treatment concentration of 100 μM
  toxicity (WST assay): no toxicity

## RKSLLR [Spep-2-ND5, RKSLLR]
[2]
  binding affinity reduced compared with Spep-2 (11-mer): 48 times
  AchR binding affinity compared with Spep-2: significantly reduced binding affinity

## L3-28: 14-mer optimized peptide of the L3 library (Table 12, not shown here) (PNGKVRKRIRRRYF; AchR binding peptide) [Peptide L3-28]
[1]; [6]
  OD: 0.803
[2]
  AchR binding affinity (resonance units: Ru) among representative peptides: highest binding affinity
[4]; nicotine 400 μM, peptide 2.5 μM
  AchR inhibition: could not inhibit

## CCCCCCCCCCCCCCCC(=O)N[C@@H](CO)C(=O)N[C@@H](CC(N)=O)C(=O)N[C@H](C(=O)N[C@@H](CCCCN)C(=O)N[C@@H](CCCNC(=N)N)C(=O)N[C@@H](CCCCN)C(=O)N[C@@H](CCCNC(=N)N)C(=O)NCC(=O)N[C@@H](CCCNC(=N)N)C(=O)N[C@@H](CS)C(=O)N[C@@H](CCCCN)C(=O)N1CCC[C@H]1C(=O)N[C@@H](Cc1ccc(O)cc1)C(=O)N[C@@H](CCCNC(=N)N)C(=O)O)C(C)C [Palmitoyl-L3-37] (Palmitoyl-SNVKRKRGRCKPYR-OH)
[5]; all groups, 7 days after administration
  weight of mice: gradually increased
[5]; up to 25 mg/kg IM, 7 days
  acute toxicity: no toxicity was observed

## WTWKGRDKLQM [Spep-4]
[2]
  AchR binding affinity: high AchR binding affinity compared with Synake

## GRKSLLR [Spep-2-ND4]
[2]
  AchR binding affinity compared with Spep-2: significantly reduced binding affinity

## CCCCCCCCCCCCCCCC(=O)N[C@@H](Cc1c[nH]c2ccccc12)C(=O)N[C@H](C(=O)N[C@@H](Cc1c[nH]c2ccccc12)C(=O)N[C@@H](CCCCN)C(=O)NCC(=O)N[C@@H](CCCNC(=N)N)C(=O)N[C@@H](CCCCN)C(=O)N[C@@H](CO)C(=O)N[C@@H](CC(C)C)C(=O)N[C@@H](CC(C)C)C(=O)N[C@@H](CCCNC(=N)N)C(=O)O)[C@@H](C)O [Palmitoyl-Spep-2] (Palmitoyl-WTWKGRKSLLR-OH)
[3]
  cytotoxicity (WST assay): no cytotoxicity

## WTWKGNKQVKF [Spep-10]
[2]
  AchR binding affinity: high AchR binding affinity compared with Synake

## L3-27: 14-mer optimized peptide of the L3 library (Table 12, not shown here) (RARKKRKSLLRRQV; AchR binding peptide) [Peptide L3-27]
[1]; [6]
  OD: 0.83
[2]
  AchR binding affinity (resonance units: Ru) among representative peptides: highest binding affinity
[4]; nicotine 400 μM, peptide 1 μM
  AchR inhibition: 50%
[4]; nicotine 400 μM, peptide 5 μM
  AchR inhibition: could not inhibit

## WTWKGKGTLNR [Spep-1, WTWKGKGTLNR]
[3]
  toxicity (WST assay): no toxicity

## L2-110: 11-mer optimized peptide of the L2 library (Table 11, not shown here) (RYAKHRKRQTR; AchR binding peptide) [Peptide L2-110]
[1]; [7]
  OD: 0.831
[2]
  AchR binding affinity (resonance units: Ru) among representative peptides: higher binding affinity to AchR compared with the 8-mer L1-13
[4]; nicotine 400 μM, peptide 5 μM
  AchR inhibition: could not inhibit

## WTWKGRKSLLR [Spep-2, WTWKGRKSLLR]
[3]
  toxicity (WST assay): no toxicity
[1]; [7]
  OD: 0.303
[1]; [6]
  OD: 0.303
[1]; [8]
  OD: 0.303
[2]
  AchR binding affinity: high AchR binding affinity compared with Synake
[2]; from Kd values
  AchR binding affinity superior to that of Synake: about 2,000 times
[4]
  IC50: 750 nM
[4]; peptide 0.5 μM, TE671 cells
  AchR inhibitory effect: 90%
[4]; peptide 5 μM, TE671 cells
  AchR inhibitory effect: 100%
[4]; nicotine 400 μM, peptide 20 μM, TE671 cells
  AchR inhibitory rate: about 10%
[4]; nicotine 400 μM, peptide 70 μM
  AchR inhibition: could not inhibit
[4]; nicotine 400 μM, peptide 80 μM
  AchR inhibition: 100%
[4]; nicotine treatment, compared with Synake, TE671 cells
  nicotinic acetylcholine receptor inhibitory effects: excellent nicotinic acetylcholine receptor inhibitory effects

## L3-171 (LDTKNRRGASKWDY; AchR binding peptide) [Peptide L3-171]
[1]; [6]
  OD: 0.629

## L3-173 (QLGKQKREATREYV; AchR binding peptide) [Peptide L3-173]
[1]; [6]
  OD: 0.775

## L3-12 (DPPKKRKSLLRRVS; AchR binding peptide) [Peptide L3-12]
[1]; [6]
  OD: 0.882

## KLKRRSRR [Peptide L1-16]
[1]; [8]
  OD: 0.62

## L2-186 (PNWKVRRFGDK; AchR binding peptide) [Peptide L2-186]
[1]; [7]
  OD: 0.683

## KTKKAAER [Peptide L1-178]
[1]; [8]
  OD: 0.625

## KIKRNVFK [Peptide L1-160]
[1]; [8]
  OD: 0.55

## L3-75 (QIPKQKKQEQRAIS; AchR binding peptide) [Peptide L3-75]
[1]; [6]
  OD: 0.72

## L2-85 (VFVKWRRQMMR; AchR binding peptide) [Peptide L2-85]
[1]; [7]
  OD: 0.768

## L3-194 (WAPRDRRNMGRDPA; AchR binding peptide) [Peptide L3-194]
[1]; [6]
  OD: 0.743

## L3-85 (QLVKLRKLARRVSY; AchR binding peptide) [Peptide L3-85]
[1]; [6]
  OD: 0.735

## L3-162 (ANWRTRRDLAKEHV; AchR binding peptide) [Peptide L3-162]
[1]; [6]
  OD: 0.781

## L3-96 (EWHKHRREMVRWGP; AchR binding peptide) [Peptide L3-96]
[1]; [6]
  OD: 0.567
